Source: IntAct's records for PubMed 23813973

Biological target: dnm1l_human DNM1L (UniProt O00429)
Sequence (O00429 whole entry): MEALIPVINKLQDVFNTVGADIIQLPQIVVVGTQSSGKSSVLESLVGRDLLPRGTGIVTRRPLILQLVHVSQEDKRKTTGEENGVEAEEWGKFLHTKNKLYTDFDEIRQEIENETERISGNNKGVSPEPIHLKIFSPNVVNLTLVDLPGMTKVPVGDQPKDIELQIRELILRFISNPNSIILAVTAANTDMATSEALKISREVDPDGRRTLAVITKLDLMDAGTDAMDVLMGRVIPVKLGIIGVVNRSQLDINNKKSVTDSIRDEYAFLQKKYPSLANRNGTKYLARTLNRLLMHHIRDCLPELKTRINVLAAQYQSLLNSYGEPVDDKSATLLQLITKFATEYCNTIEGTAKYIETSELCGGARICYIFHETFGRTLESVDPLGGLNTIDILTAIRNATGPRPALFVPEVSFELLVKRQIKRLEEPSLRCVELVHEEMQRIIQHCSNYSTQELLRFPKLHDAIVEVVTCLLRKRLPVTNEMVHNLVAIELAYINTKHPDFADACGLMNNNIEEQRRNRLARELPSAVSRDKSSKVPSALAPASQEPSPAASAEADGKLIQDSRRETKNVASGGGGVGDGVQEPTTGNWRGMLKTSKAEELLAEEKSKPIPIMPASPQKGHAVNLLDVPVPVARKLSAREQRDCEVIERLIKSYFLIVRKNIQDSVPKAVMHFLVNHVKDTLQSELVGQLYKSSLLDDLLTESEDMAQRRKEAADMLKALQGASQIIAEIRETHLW

Leucine-rich repeat serine/threonine-protein kinase 2 (Homo sapiens), Q5S007 K1906A;D1994A;D2017A
effect of a mutation on the interaction: decreasing interaction
